Results taken from US7888291B2, “Substrates and assays for β-secretase” (Elan Pharmaceuticals, Inc., priority 2000, dated 2011).
Non-standard residues stand in square brackets, D forms with d. No end group written: not given here. Sta = CC(C)C[C@H](N)[C@@H](O)CC(=O)O

Key:
Hu-Asp [1] = target: T1, Hu-Asp (Homo sapiens, UniProt P56817); test: Inhibition of HuAsp enzyme activity by statine-containing peptide; type: biochemical
[2] = Solubility of peptide substrate; type: physicochemical; conditions: effect of the addition of two lysines
Hu-Asp [3] = target: T1, Hu-Asp; test: Hu-Asp cleavage assay variation for substrates of SEQ ID NO:190 and 191 (Vmax, Km, pH, ionic strength, DMSO); type: biochemical; design: made in house; host or cells: High Five insect cells; conditions: 100 mM NaOAc/HOAc, pH 4.5 (stated for SEQ ID NO:190 and 191)
Description: In the substrates SEISY-EVEFRWKK (SEQ ID NO:190) and GLTNIKTEEISEISY-EVEFRWKK (SEQ ID NO:191), the 10 N-terminal amino acids of peptide SEISY-EVEFRWKK (SEQ ID NO:190) are identical to those of peptide SEISY-EVEFR (SEQ ID NO:152). The difference between the two peptide is the presence of a tryptophan and two lysines in the peptide of SEQ ID NO:190. […] Hu-Asp activity was tested towards SEISY-EVEFRWKK (SEQ ID NO:190) and GLTNIKTEEISEISY-EVEFRWKK (SEQ ID NO:191). […] The activity difference between the two peptides was particularly dramatic in the pH range 4.0-4.6. Specifically, it was 6.3-4.8 times higher for the peptide of SEQ ID NO:191. […] Both peptides were inhibited by increasing concentrations of DMSO. […] As expected, the N-terminus elongation increases activity. […] The development of the substrates of SEQ ID NO:190 and SEQ ID NO:191 is of great value in Hu-Asp inhibition studies and in studies concerning recombinant Hu-Asp refolding from E. coli inclusion bodies.
In a variation of the above assay for substrates of SEQ ID NO:190 or its N-terminally extended version depicted in SEQ ID NO:191), the substrates are incubated with the enzyme to a final reaction solution volume of 200 μl (although reaction mixtures of 50-100 μl also were used) composed of 5-50 μM peptide substrate, 1-10 nM enzyme, 0.1. M sodium acetate buffer at pH 4 to 5. […]

Hu-Asp2 [4] = target: T2, Hu-Asp2 (Homo sapiens, UniProt P56817); test: Hu-Asp2 peptide substrate cleavage assay (HPLC quantitation of cleavage products); type: biochemical
T2 construct: made in house; host or cells: High Five insect cells
Description: The peptides listed in Table 2 were designed, synthesized, and tested for activity as substrates for Hu-Asp2. 200 μM of each test substrate was incubated with 210 nM Hu-Asp2 enzyme at pH 4.5 at 37° C. for 3 hours. Of course it should be understood that these are merely exemplary assay conditions, and those of skill in the art will be able to vary these conditions and yet still provide appropriate Hu-Asp2 activity. For example, it is envisioned that the assays may be conducted at a pH range of from between about 4.0 to about 7.0. The amount of enzyme added to a given reaction mixture may also be varied and those of skill in the art will be able to perform assays defining the optimal enzyme concentrations necessary for a given assay, as such 150 nm; 200 nm; 250 nm; 300 nm or more or less enzyme may be added. Substrate concentration in those also may be varied such that an assay may use 100, 150 μM, 200 μM, 250 μM, 300 μM, 350 μM or more or less of any given; substrate. It may be that one substrate produces an optimum activity at one concentration whereas another substrate is needed to be present at a different concentration to produce an optimum cleavage rate. However, such optimizations of enzyme assay conditions is well within the skill of those in the art and will not require undue experimentation.
In an exemplary assay to determine the cleavage of the substrates of the present invention, Asp2 was prepared from High Five™ insect cells. Generally, the assasy are run in solution at acidic pH (4.0 to 5.0), at 25-37° C. in the presence of nM or sub-nanomolar enzyme. After a suitable period of incubation the reaction is stopped at a desired time by addition of 4% trifluoracetic acid (TFA). Substrates and products are separated using reverse phase HPLC. The disappearance of the substrates and the appearance of the products are monitored by continuous measurement of the absorbance of the effluent at […]. Furthermore, if the peptide comprises a tryptophan residue, the monitoring may additionally or alternatively involve continuous monitoring of fluorescence of tryptophan fluorescence (excitation at 280 nm, emission at […]) of the effluent.
In a typical assay, 210 nM enzyme and 200 μM substrate were incubated in 0.2 M sodium acetate at pH 4.5 in 100 μl volume at 37° C. for 1 to 3 hours. The assay was stopped by the addition of 50 μl 4% TFA to lower the pH below the active range of the enzyme. Subsequently, 100 μl of this mixture was injected into a Hewlett Packard Model 1090 HPLC equipped with a Vydac column (4.6 mm i.d.×150 mm, 5 μm) pre-equilibrated with 95% A (0.15% TFA in water), 5% B (0.15% TFA in acetonitrile). The constituents were then eluted from the column with the following linear gradients: 0-15 min: 5-50% B; 15-17 min: 50-100% B; 17-20 min: 100-5% B; 20-22 min: 5% B). The cleavage products were then quantitated using an enhanced integrator. […]

HEK-293 cells = test: ELISA of secreted Aβ40 and Aβ42 in medium of transfected HEK-293 cells; type: cell-based, human; conditions: medium of the transfected HEK-293 cells
Description: As one indicator of APP processing, levels of secreted Aβ from the medium of the transfected HEK-293 cells were measured. Measurements were by ELISA using antibody 6E10 (Syntek, St. Louis, Mo.) to capture Aβ and antibody 208 for Aβ40 and antibody 165 for Ap42. […] Using additional constructs in peptide activity assays, it was determined that if an Asn residue was substituted in place of a Ser to give SEVNY-↓-EVEFR (SEQ ID NO:170), this peptide has an activity that is only ⅕ than that of SEVSY-↓-EVEFR (SEQ ID NO:141; Table 4). This observation reaffirms that amino acid optimization at a certain position depends on the rest of the substrate sequence.

Hu-Asp2 [5] = target: T2, Hu-Asp2; test: Hu-Asp2 peptide substrate cleavage assay (HPLC quantitation of cleavage products); type: biochemical

T2 sequence (P56817 46-501): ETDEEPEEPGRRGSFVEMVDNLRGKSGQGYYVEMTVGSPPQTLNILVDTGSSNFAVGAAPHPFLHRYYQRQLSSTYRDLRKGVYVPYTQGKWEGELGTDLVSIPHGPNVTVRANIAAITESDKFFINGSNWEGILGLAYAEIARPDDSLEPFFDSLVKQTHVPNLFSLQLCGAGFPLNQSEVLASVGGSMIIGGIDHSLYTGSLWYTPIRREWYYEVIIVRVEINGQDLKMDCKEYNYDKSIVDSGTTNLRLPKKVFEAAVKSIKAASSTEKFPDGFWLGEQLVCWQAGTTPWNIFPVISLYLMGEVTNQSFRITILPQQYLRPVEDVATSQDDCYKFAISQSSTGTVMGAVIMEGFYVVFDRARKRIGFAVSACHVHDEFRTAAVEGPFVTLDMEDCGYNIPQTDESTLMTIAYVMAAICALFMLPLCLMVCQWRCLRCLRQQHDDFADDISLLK
T1 sequence (P56817 46-501): as above

Substance: SEVN[Sta]VAEFRGGC [statine-containing peptide]
- inhibition of HuAsp enzyme activity (Hu-Asp [1]): shown to inhibit HuAsp enzyme activity

Substance: SEISYEVEFRWKK [SEQ ID NO:190, SEISY-EVEFRWKK]
- solubility [2]: increased solubility
- Km (Hu-Asp [3]): 86.7 µM

Substance: SEVSY-↓-EVEFR (SEVSYEVEFR)
- activity as substrate of Hu-Asp2 (in words) (Hu-Asp2 [4]): activity superior to the Swedish mutation
- production of secreted Aβ40 and Aβ42 (HEK-293 cells): easily measurable levels of Aβ
- activity compared with Swedish mutant peptide (SEQ ID NO:19) (Hu-Asp2 [5]; Table 4): 1.4 fold
- Relative rate of Cleavage (Hu-Asp2 [5]; Table 4, 200 nM enzyme, 200 μM substrate, pH 4.5, 37° C., 1 hr, SEQ ID NO:19 = 100): 141.8
- Cleavage Activity (Hu-Asp2 [5]; Table 5, 2 nM enzyme, 50 μM substrate, 25 mM Sodium acetate, pH 4.4, 37° C., 2 hr): 0.16 µmol/min/mg
- Relative rate of Cleavage (Hu-Asp2 [5]; Table 5, 2 nM enzyme, 50 μM substrate, 25 mM Sodium acetate, pH 4.4, 37° C., 2 hr, SEQ ID NO:141 = 100): 100
